In the supplement of paper PMC12042874:
± gives the uncertainty stated by the source.

Assay: amyloid nucleation score (Sup35N fusion, yeast selection) (log enrichment); library NNK2; higher = more nucleation; inactive = no reads after selection
Summary of the method: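 Random libraries were run with three technical output replicates. In each, psi-negative yeast expressing Sup35N fused to peptides of 20 random codons were induced 24 hours with 100 μM copper sulfate and grown 7 days at 30°C on medium lacking adenine and uracil, and input and output plasmid inserts were Illumina-sequenced. The nucleation score is the DiMSum log enrichment of output over input reads, centred on the mode score of non-aggregating sequences, and sequences under 100 input reads were excluded.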

Row | Substance | amyloid nucleation score
1 | LLSFLMRSRRFLSTVKY | -0.931 ± 0.78
2 | DLSDIDRCGRLVNRESILLR | 1.45 ± 0.5
3 | GSGGWLAGHKTVK | 0.174 ± 1
4 | VDRWDGSVHCSIGGNFYCSG | -0.545 ± 0.54
5 | YFRMNPKFVCTKYSNAEYLS | -0.427 ± 0.64
6 | FLKSVSVRVGVILQAHAQEV | 0.375 ± 0.57
7 | RPVSSFVSASGSRSGLQSLK | 0.085 ± 0.8
8 | SLSDYFGEWISA | -0.422 ± 1.1
9 | PLITDFLAGMLSPENVSVPQ | 0.883 ± 0.51
10 | MFDLQVRTWFWAF | 3.03 ± 0.11
11 | KYVWSVEGKVAVAGVAMSCA | 0.025 ± 1.1
12 | LPYYKHCNRLTNVTCLYKRR | 3.34 ± 0.15
13 | YIYRNITRLQKSCSIIISGR | -1.88 ± 0.64
14 | YIAILFYMC | 7.2 ± 0.044
15 | LWHGYGRFRVLSVVF | 3.53 ± 0.045
16 | GYNHFFTNDIISRGFPVSFK | inactive
17 | HCHWWEGWRVEVYCLFPVTT | 7.852 ± 0.064
18 | RILIINLSPNEYMIGLH | 4.3 ± 0.1
19 | ITSLCYNVREFFWGRYVSRV | inactive
20 | NRVLSFPRWGAIYVYTMTEF | -0.892 ± 1.1
21 | DRLLHDTE | -0.866 ± 0.76
22 | KIFFKNDGAGSVWPSNKLYF | -1.29 ± 1
23 | FACNLGFMTSSFMRWSNTSA | 0.356 ± 0.33
24 | ITADNVKSNHKAVVMNDIHG | -0.133 ± 0.49

Row | Substance | amyloid nucleation score
25 | IGDSVGSDWTSTFMCDSVCR | -0.15 ± 0.42
26 | LLCQITRVAIPCHVCGDDVA | 3.81 ± 0.13
27 | NTMELLFIGVWIAFWLN | inactive
28 | RAQFIQLGDEYYTRC | 0.564 ± 0.49
29 | MLKSHVI | -0.374 ± 0.32
30 | NTCMLRARVSVMQNEE | 0.071 ± 0.35
31 | RHFHGGSSIAARAVTWAGQG | 1.5 ± 0.44
32 | CILDI | -0.089 ± 1.1
33 | LCARALLH | 0.905 ± 0.32
34 | ERLRSLKDNIMNFCKSRLGL | inactive
35 | ARFFLHFG | 6.2 ± 0.074
36 | YLYKCNM | inactive
37 | FYKGWMVLALNDNSVVSINV | 3.42 ± 0.085
38 | PVIRRLEFGWQNASYG | -0.564 ± 0.76
39 | LYSVGVR | -0.387 ± 1.1
40 | NWGAWLNWFNLVIYGCRVIN | 6.03 ± 0.079
41 | TLMGNVRTCPPAGRRATTAS | 0.966 ± 0.22
42 | NAHKTNLVQTLVNRLIELMD | 0.223 ± 0.29
43 | VEFVVPKI | -0.586 ± 1.1
44 | FYRSGEHRRSCRVRVVYGEL | 0.397 ± 0.64
45 | EVLTVYFARRFVESSGRGTG | 2.38 ± 0.13
46 | IVFLCSRKCNVNMYGL | 10.7 ± 0.071
47 | MSYQSINKKGFVVFGRKLLA | -0.512 ± 0.39
48 | ICRDWVDDNVFKIMGRTQRS | 0.099 ± 0.45

Row | Substance | amyloid nucleation score
49 | TASHTWSVVCFTWYRCLVND | 4.98 ± 0.051
50 | AVGNMDVQEGFTTSRADRGL | 0.913 ± 0.21
51 | VIWIRTIKMHACTYVQQDVL | 0.806 ± 0.45
52 | SLYKHSTHWRLCSTMAIVKP | 0.953 ± 0.51
53 | LDLGAPPWH | 1.03 ± 0.36
54 | SMYVDVFLRFGSWLHSFT | -0.127 ± 0.74
55 | VNSMAMLCLRICIGTHQMCG | 5.03 ± 0.054
56 | GGWLAWVRKSYVIVFVWGGG | 0.257 ± 0.46
57 | KKEVHLSRVYITETYVVGEG | -0.052 ± 0.63
58 | GYFKRHLRM | -0.619 ± 1
59 | LFGNWSFVVNRCVVSLKLM | inactive
60 | VQKRRGFILTSFR | -0.173 ± 0.39
61 | GFFVVISGRMKVYVQGKSWL | -0.325 ± 0.56
62 | VRLLGYIWKLLPHVVNQKV | 0.31 ± 0.46
63 | GLMMPYL | 0.062 ± 0.39
64 | VEYINWRFIRNTYSVE | 2.14 ± 0.12
65 | AEHYECPLCERIETAGCKLV | 0.509 ± 0.24
66 | FPGWGIDPTYKVKVRWMNRA | 0.566 ± 0.33
67 | NSIGPTPGGN | 0.123 ± 1
68 | VYCFNSRSNFHTLMLSSGYG | -0.594 ± 0.55
69 | SLKVHSWFGNIYSDFLLTSV | -0.55 ± 0.79
70 | NLDDYPG | 1.66 ± 0.25
